{"source": "paper PMC5583970", "biological_target": "His-FOR20 (UniProt Q96NB1)", "sequence (Q96NB1 whole entry)": "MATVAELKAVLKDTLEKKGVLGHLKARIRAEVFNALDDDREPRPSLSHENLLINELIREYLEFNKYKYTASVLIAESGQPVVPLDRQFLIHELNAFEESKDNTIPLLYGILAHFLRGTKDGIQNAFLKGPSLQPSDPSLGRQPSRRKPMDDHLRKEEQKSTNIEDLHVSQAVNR", "assay": "pull-down; purified His-FOR20 (1 μM) and tubulin dimers (1–8 μM) on ice for 1 h, Ni-NTP beads 30 min, supernatant and pellet on Coomassie gel, band intensities fitted to n identical independent sites; apparent Kd", "data": [{"substance": "free tubulin dimers (αβ-tubulin heterodimers) (from UniProt P02550 1-451; P02554 1-445) (complex)", "values": [{"measurement": "Kd", "result": 3.5, "unit": "µM"}, {"measurement": "stoichiometry N (tubulin dimers per FOR20)", "result": 6}]}]}
